According to patent US20060094111, “DNA containing variant FRT sequences” (published 2006):

T1: FLP recombinase (Saccharomyces cerevisiae, UniProt P03870 P03870:1-423)
T1 sequence: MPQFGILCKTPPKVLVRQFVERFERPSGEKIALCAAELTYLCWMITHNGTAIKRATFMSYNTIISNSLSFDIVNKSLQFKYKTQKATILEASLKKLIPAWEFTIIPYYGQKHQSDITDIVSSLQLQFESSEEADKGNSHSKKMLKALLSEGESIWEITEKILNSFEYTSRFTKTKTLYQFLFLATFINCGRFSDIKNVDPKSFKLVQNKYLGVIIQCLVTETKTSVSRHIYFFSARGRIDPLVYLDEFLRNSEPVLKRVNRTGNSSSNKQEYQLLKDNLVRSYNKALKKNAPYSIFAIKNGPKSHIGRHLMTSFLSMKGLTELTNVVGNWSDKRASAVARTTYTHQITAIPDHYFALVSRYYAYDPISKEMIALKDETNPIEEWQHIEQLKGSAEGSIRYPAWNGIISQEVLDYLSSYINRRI

B1: f72 mutant FRT (dsDNA)
DNA 1: TCGAGGACGTCGAAGTTCCTATACTTTCTACAGAATAGGAACTTCTCCGGAA
DNA 2: CTAGTTCCGGAGAAGTTCCTATTCTGTAGAAAGTATAGGAACTTCGACGTCC
B2: f61 mutant FRT (dsDNA)
DNA 1: TCGAGGACGTCGAAGTTCCTATACTTTCTGGAGAATAGGAACTTCTCCGGAA
DNA 2: CTAGTTCCGGAGAAGTTCCTATTCTCCAGAAAGTATAGGAACTTCGACGTCC
B3: F3 mutant FRT (dsDNA)
DNA 1: TCGAGGACGTCGAAGTTCCTATACTATTTGAAGAATAGGAACTTCTCCGGAA
DNA 2: CTAGTTCCGGAGAAGTTCCTATTCTTCAAATAGTATAGGAACTTCGACGTCC
B4: f2151 mutant FRT (dsDNA)
DNA 1: TCGAGGACGTCGAAGTTCCTATACTCTCCAGAGAATAGGAACTTCTCCGGAA
DNA 2: CTAGTTCCGGAGAAGTTCCTATTCTCTGGAGAGTATAGGAACTTCGACGTCC
B5: f2262 mutant FRT (dsDNA)
DNA 1: TCGAGGACGTCGAAGTTCCTATACTATCTTGAGAATAGGAACTTCTCCGGAA
DNA 2: CTAGTTCCGGAGAAGTTCCTATTCTCAAGATAGTATAGGAACTTCGACGTCC
B6: f2161 mutant FRT (dsDNA)
DNA 1: TCGAGGACGTCGAAGTTCCTATACTCTCTGGAGAATAGGAACTTCTCCGGAA
DNA 2: CTAGTTCCGGAGAAGTTCCTATTCTCCAGAGAGTATAGGAACTTCGACGTCC

Biological target: T1, FLP recombinase
Assay: recombination of two identical sites; same buffer
Details: tags: untagged; expressed from recombinant adenovirus AxCAFLP (2 micron DNA FLP gene) in 293 cells; chain copies: 4
Protocol: Whether or not FLP-dependent recombination reaction caused between the two mutant FRT sequences was studied by the assay described below. The DraI-digested plasmid DNA (1.5 μg) prepared in Example 2 and the cell extract containing FLP (25 μl) prepared in Example 1 were added to buffer containing 50 mM Tris-HCl (pH 7.5)/10 mM MgCl₂/5 mM DTT in its final concentration (the volume of reaction solution: 50 μl), and the reaction mixture was incubated at 30° C. for 30 minutes. After the termination of the reaction, 200 μl of sterilized water and 50 […] of 20 mM EDTA solution (pH 8.0) were added to the reaction mixture. The reaction mixture was extracted with phenol/chloroform and with chloroform. The resulting product was precipitated with ethanol, to obtain DNA. The resulting DNA was then solubilized in 20 μl of TE buffer (pH 8.0) containing RNaseA (20 μg/ml). Next, an entire volume of the resultant was digested with restriction enzyme NcoI, and subjected to electrophoresis on agarose gel. Thereafter, DNA bands detected by ethidium bromide (EtBr) staining were analyzed.
In order to numerically express the reaction efficiency, the ratio of […] was calculated as the recombination ratio (%) between the two FRT sequences.

Going from B1 to B2, the activity falls from 10.9% to 2.6%.

Compared with B3, B4 is lower in activity: 3.1% for the first, 2.9% for the second.

Compared with B5, B6 is higher in activity: 3.8% for the first, 4.5% for the second.
